Experimental findings from patent US20120195910A1 (published 2012) are described below.

B1: YW508.20.84 (antibody, V domains shown)
VH: EVQLVESGGGLVQPGGSLRLSCAASGFTFTGYAIHWVRQAPGKGLEWVARISPANGNTNYADSVKGRFTISADTSKNTAYLQMNSLRAEDTAVYYCARWIGSRELYIMDYWGQGTLVTVSS
VL: DIQMTQSPSSLSASVGDRVTITCRASQDVSTAVAWYQQKPGKAPKLLIYSASFLYSGVPSRFSGSGSGTDFTLTISSLQPEDFATYYCQQSYPAPSTFGQGTKVEIKR
B2: YW508.20.33 (antibody, V domains shown)
VH: B1 VH with T30S, G31S, Y32T
VL: B1 VL with P95L, S96H
B3: YW508.20.28 (antibody, V domains shown)
VH: B1 VH with G31R, Y32H, A33T
VL: B1 VL with P93R, A94I, P95Q, S96P
B4: YW508.20.06 (antibody, V domains shown)
VH: B1 VH
VL: B1 VL with A94S, S96A
B5: YW508.20.04 (antibody, V domains shown)
VH: B1 VH with A49G
VL: B1 VL with S96A
B6: YW508.20 (antibody, V domains shown)
VH: B1 VH with A49G
VL: B1 VL with T31S, F53S, G66R, P93T, A94T, S96P

Positions count from the first letter of the chain named.

The target of one assay is Human PCSK9 (Genbank EF692496) containing a histidine (His)8 C-terminal tag (UniProt Q8NBP7 31-692). Briefly: BIAcore SPR; FIG. 3A. Background: Surface plasmon resonance follows binding to a sensor surface in real time, without labels.
For orientation: Kd means the constant that tells how readily two partners part at equilibrium. Take B1: the Kd worked out at 481 pM.

The molecule B2 showed a Kd of 408 pM.

Regarding B3, the Kd worked out at 349 pM.

B4 yielded a Kd of 628 pM.

For B5, the equilibrium dissociation constant (Kd) was found to be 757 pM.

Another assay deals with biotinylated human PCSK9 (UniProt Q8NBP7 31-692, biotinylated (sites not given)). Briefly: competition binding ELISA (PCSK9-LDLR). For orientation: In an ELISA, binding on a coated surface is turned into a signal by an enzyme label.
As usually defined, the IC50 is the point on the concentration scale where inhibition reaches its midpoint. A higher IC50 goes with weaker potency. Take B1: the IC50 is 1390 pM.

Consider B2, for which the IC50 was determined as 1310 pM.

For B6, the IC50 is 15200 pM.

Take B3: the IC50 is 1050 pM.

B4 displayed a half-inhibitory concentration (IC50) of 1000 pM.

On to B5, for which the IC50 is 920 pM.
